Changes are numbered by the printed parent chain. In names and notes the source's numbering stands.

Series [1] can be described thus: Isoelectric focusing electrophoresis (pI observed). Format: physicochemical. As to conditions: pH 3 to 10 gel. The protocol: The isoelectric point of each low-pI TM2 was measured by isoelectric focusing electrophoresis using an XCell SureLock Mini-Cell (Invitrogen). In accordance with the instruction, each low-pI TM2 (500 ng) and an IEF sample buffer (pH 3 to 10 (2×), Invitrogen) were mixed and were added to a polyacrylamide gel (pH 3 to 10, IEF Gel, Invitrogen) at a pH ranging from 3 to 10, followed by electrophoresis at a variable voltage of 100 V for 1 hour, 200 V for 1 hour, and 500 V for 45 minutes in this order.
After the electrophoresis, the gel was shaken in a blotting buffer (0.7% acetic acid) for 10 minutes and then was transferred onto a PVDF membrane at 10 V for 1 hour using an XCell ll Blot Module (Invitrogen). The PVDF membrane was subjected to reaction with anti-TM2 rabbit antibody (PCT/W2006/326260) serving as a primary antibody and with alkaline phosphate-labeled anti-rabbit IgG antibody (BIO-RAD) serving as a secondary antibody, followed by detection of bands with Alkaline Phosphatase Substrate Kit II
The isoelectric point of the high-affinity TM2 was measured by isoelectric focusing electrophoresis using an XCell SureLock Mini-Cell (Invitrogen). […] The electric point of TM2 D40N having replacement of the […] amino acid was higher than that of the wild type TM2 also in the isoelectric focusing electrophoresis.
The isoelectric point of HALU TM2 was measured by isoelectric focusing electrophoresis using an XCell SureLock Mini-Cell (Invitrogen). In accordance with the instruction, bands of each HALU TM2 (4 μg) were detected by CBB staining. […] The observed isoelectric point of TM2 D40N was 9.7, and was reduced to 8.9 after introduction of mutation of R104E and was reduced to 7.3 to 7.5 after further introduction of mutation of K141E.

The test system of series [2] is human serum protein. Briefly: Non-specific adsorption of low-pI TM2 to human serum protein-immobilized magnetic beads. Format: binding. The method, then: In this embodiment, non-specific binding to human serum was investigated as non-specific adsorption of low-pI TM2 to serum protein-immobilized magnetic beads. Specifically, in order to investigate the non-specific binding of low-pI TM2, the amount of low-pI TM2 adsorbed to magnetic beads to which human serum protein was covalently bonded was measured. TM2 K26A, TM2 K73Q, TM2 R104E, TM2 K141E, and TM2 R104EK141E, which were highly expressed in Escherichia coli, were used as the low-pI TM2 to be investigated.
Human serum protein and magnetic beads were bound to each other as follows. Magnetic beads having surfaces coated with carboxyl groups (Dynabeads M-270 Carboxylic Acid, Dynal, 210 μL) were washed with 0.01 N sodium hydroxide (210 μL) for 10 minutes and then with ultrapure water (210 μL) for 10 minutes three times. To the washed magnetic beads, 1-ethyl-3-(3-dimethylaminopropyl)carbodiimide hydrochloride (EDC, PIERCE) dissolved in cooled ultrapure water was added into a final concentration of 0.2 M, and the mixture was shaken at room temperature for 30 minutes. Then, the magnetic beads were washed with cooled ultrapure water (210 μL) and then with 50 mM MES buffer (pH 5.0, 210 μL).
To the magnetic beads, 1 mg/mL human serum protein (CHEMICON, 210 μL) dialyzed with 50 mM MES buffer (pH 5.0) was added. The mixture was shaken at room temperature for 30 minutes to covalently bind the human serum protein to the magnetic beads. The magnetic beads were collected with a magnet to remove the supernatant. The unreacted active groups on the beads were eliminated with 50 mM tris buffer (pH 7.0, 210 μL), and then the magnetic beads were blocked with a PBS buffer (420 μL) containing 0.5% BSA and 0.1% Tween 20. The magnetic beads were suspended in a PBS buffer (210 μL) to obtain human serum protein-immobilized magnetic beads.
The magnetic beads (7 μL) and 0.56 μg/mL of each low-pI TM2 (100 μL) were mixed for reaction at room temperature for 1 hour. The magnetic beads were collected with a magnetic, and the supernatant was removed. After washing with 20 mM potassium phosphate buffer (500 μL) containing 500 mM sodium chloride, the magnetic beads were mixed with 20 μL of 2×SDS sample buffer (250 mM Tris-HCl, pH 6.8, 20% 2-mercaptoethanol, 20% SDS, 20% glycerol), followed by heating at 95° C. for 20 minutes to dissociate the low-pI TM2 from the magnetic beads.
This sample was subjected to SDS-PAGE and then western blotting analysis to determine the amount of the low-pI TM2. Anti-tamavidin 2 rabbit antibody and alkaline phosphatase-labeled anti-rabbit IgG goat antibody were used as the primary antibody and the secondary antibody, respectively. The bands were detected with Alkaline Phosphatase Substrate Kit II <VECTOR Black> (VECTRO) and were quantified with Las-3000 (FUJIFILM).

Series [3] deals with Salmon sperm DNA. Briefly: Non-specific binding to DNA (membrane-adsorbed DNA, biotinylated HRP, ECL). Conditions: salmon sperm DNA 10 μg to 1 μg on membrane, 25 μg/mL protein. The method, then:
Salmon sperm DNA diluted stepwise from 10 μg to 1 μg with 2×SSC buffer was denatured with an alkali and was adsorbed to Hybond N+membrane (Amersham Biosciences) using Bio-Dot SF (BIO-RAD). After blocking the membrane with 5×Denhardt's solution (0.1% BSA, 0.1% ficoll, 0.1% polyvinylpyrrolidone), the membrane was immersed in 25 μg/mL of low-pI TM2 or the wild-type TM2 at room temperature for 90 minutes. Then, the membrane was washed with a TUBS buffer (TBS buffer containing 0.05% Tween 20) at room temperature for 5 minutes three times. The membrane was blocked with a TBS buffer containing 3% skimmed milk and 0.1% Tween 20 for 1 hour. The membrane was subjected to a reaction with biotinylated horseradise peroxidase (Vector) diluted 5000 times with a TBS buffer containing 3% skimmed milk and 0.1% Tween 20 at room temperature for 1 hour. The membrane was washed with a TBS buffer containing 0.1% Tween 20 again and was then shaken in a solution that is a mixture of reagent 1 and reagent 2 of ECL (Amasham) in the same volumes, followed by detection of the luminol reaction with Las-3000 (FUJIFILM).
The non-specific binding of HALU TM2 to DNA was analyzed by the process in paragraph 1-11) of Example 1.

Series [4] is described as follows: Biotin-binding test (Biacore 3000, biotin-LC-BSA immobilized). As to conditions: Biotin-BSA (22.4 Å). The protocol:
High-purity BSA (Sigma, 2 mg) and NHS-LC-biotin (Pierce, 1 mg) were dissolved in 50 mM sodium borate (pH 8.0, 1 mL) and were incubated at 4° C. for 2 hours. The solution was put into a dialysis tube (MWCO 6-8,000) and was dialyzed with 50 mM sodium carbonate (pH 6.7) at 4° C. overnight. The resulting biotin-LC-BSA conjugate (MW: 67 kDa, 30 μM) was used as a ligand for a Biacore (registered trademark) biosensor.
Biotin-LC-BSA and BSA serving as a negative control were immobilized on CM5 sensor chips by amine coupling method. The amount for immobilization was adjusted to about 200 RU. The chips to which BSA was immobilized were disposed in flow cells 1 and 3, while the chips to which biotin-LC-BSA was immobilized were disposed in flow cells 2 and 4.
Accordingly, seven step measurement (3.125, 6.25, […], 25, 50, 100, and 200 nM) was conducted from the lowest concentration, without recycling steps. The data of BSA as reference was deducted from the data of BSA-LC-biotin. The measurement was performed at 25° C. The resulting sensorgrams were subjected to reaction kinetics analysis using analysis software BIAevaluation ver. 4.1 with a 1:1 binding model to calculate the binding rate constant (ka) and the dissociation rate constant (kd). The dissociation constant (KD) was determined from kd/ka. In the case where no recycling step is employed, the Rmax (maximum amount of binding analyte) decreases at each measurement. Accordingly, in the analysis, the Rmax was calculated by conducting local fitting for each concentration, and only the data of analyte concentrations that were approximated to the 1:1 binding model was employed.
TM2 and HALU TM2 used as analytes were prepared by purification with 2-iminobiotin agarose in accordance with a common method and dialysis with 20MM KPi (pH 7) overnight. The analytes were each adjusted to about 50 μg/mL in 10 mM acetate buffer (pH 5, Biacore).
The immobilization of the ligand and measurement and analysis of specific interaction with the analytes were conducted as in paragraph 2-7-2).
(SPR reads the build-up and loss of mass on a sensor chip optically.)

Series [5] has as its system human serum protein. Briefly: Non-specific adsorption of serum protein to HALU TM2-immobilized magnetic beads. The class given is binding. As to conditions: human serum diluted 800 times, anti-human IgG detection. The method, then: In this Example, non-specific adsorption of serum protein to HALU TM2-immobilized magnetic beads was investigated.
TM2 D40NR104E and TM2 D40NR104EK141E were bonded covalently to magnetic beads (Dynabeads M-270 Carboxylic Acid, Dynal) by the process described in paragraph 1-9) of Example 1, and the amount of human serum protein adsorbed to the beads was measured. The amount of each HALU TM2 immobilized to the magnetic beads was adjusted to 10 μg/100 μL beads. Human serum (CHEMICON) was diluted 800 times with a PBS buffer, and the HALU TM2-immobilized magnetic beads (50 μL) to which a certain amount of protein was immobilized were added to the diluted human serum, followed by mixing by turning the tube containing the beads upside down at room temperature for 15 minutes. The magnetic beads were washed with a PBS buffer containing 0.1% Tween 20 (PBST, 500 μL) four times and were then subjected to antigen-antibody reaction at room temperature for 15 minutes with HRP-labeled anti-human IgG mouse antibody (100 μL) diluted 5000 times with PBST containing 0.5% BSA. Subsequently, the beads were washed with PBST (500 μL) five times, followed by color development with 1-Step Ultra TMB-ELISA (100 μL). After termination of the color development with 2M sulfuric acid (100 μL), the magnetic beads were collected with a magnet. The absorbance at 450 nm of the supernatant was measured with an Infinite 200 microplate reader.

Series [6] in a line: Heat stability of protein structure (soluble protein after heating, SDS-PAGE). Format: physicochemical. As to conditions: heated for 20 minutes. The protocol: 3-8) Heat Stability of HALU TM2 Protein Structure Each of 0.2 μg/μL TM2 mutant solutions (10 μL (2 μg)) was heated at room temperature, 50, 60, 70, 80, 90, or 99° C. for 20 minutes. Then, the solution was centrifuged at 15000 rpm for 10 minutes, and the soluble protein in the supernatant was suspended in the same volume of 2×SDS sample buffer (250 mM Tris-HCl, pH 6.8, 20% 2-mercaptoethanol, 20% SDS, 20% glycerol). The suspension was heated at 95° C. for 10 minutes, followed by SDS-PAGE. The protein bands were detected by CBB staining A standard curve was prepared using a quantitative marker (LMW ELECTROPHORESIS CALIBRATION KIT; Pharmacia Biotech) with Las-3000 (FUJIFILM) to quantify the protein bands.

B1: TM2 R104EK141E: TM2 mutant, arginine 104 and lysine 141 each replaced with glutamic acid; SEQ ID NO: 16 (protein)
chain: MSDVQSSLTGTWYNELNSKMELTANKDGTLTGKYLSKVGDVYVPYPLSGRYNLQPPAGQGVALGWAVSWENSKIHSATTWSGQFFSESSPVILTQWLLSSSTAEGDVWESTLVGNDSFTKTAPTEQQIAHAQLHCRAPRLE
modifications: Synthetic TM2 R104EK141E
On to B1, for which the pI observed in series [1] is 6.2. Also, in series [2] (FIG. 1), the “decrease of adsorption to human serum protein compared to the wild type TM2” value amounted to 70% and the “non-specific binding to human serum protein compared to TM2” value is “significantly low”. The “Non-specific binding of serum protein (%)” value in series [2] (wild type TM2 = 100) is given as 25%. In addition, in series [3], the “Non-specific binding of DNA” value is on record as “lower than the detection limit”.

B2: TM2 D40NR104E: TM2 mutant having mutation of D40N and R104E; SEQ ID NO: 22 (protein)
chain: B1 chain with D40N, E141K
modifications: Synthetic TM2 D40NR104E
Molecule B2 came in with a pI observed in series [1] of 8.9. In addition, the ka in series [4] is reported as 1.4 × 10^6. In series [4] (values in parentheses), the kd result is on record as “(2.9 × 10^−9)”. Also, the “Non-specific binding to serum protein (A450)” value in series [5] is recorded as “low”; in series [5] (listed as D40NR104E) it was 0.56. The “Thermal stability (temp. at which 50% of protein was lost)” value in series [6] is 78 °C.

Source of the values: patent US8304236B2, “Modified biotin-binding protein” (Japan Tobacco Inc., priority 2008, dated 2012).
